From article PMC3355227 come the findings set out here.

For experiment [1], the target named is Plk1 polo-box domain (PBD), purified protein of the fluorescence polarization assay. Put plainly: fluorescence polarisation. For orientation: Fluorescence polarisation rises when a labelled molecule tumbles more slowly, as on binding a larger partner.
For experiment [2], the target named is HA-EGFP-Plk1, P53350. Put plainly: ELISA. The note with it: remark: other sources report otherwise. For orientation: An ELISA detects its analyte on a solid surface through an enzyme-linked reagent.
Sequence of HA-EGFP-Plk1, P53350 (P53350 whole entry): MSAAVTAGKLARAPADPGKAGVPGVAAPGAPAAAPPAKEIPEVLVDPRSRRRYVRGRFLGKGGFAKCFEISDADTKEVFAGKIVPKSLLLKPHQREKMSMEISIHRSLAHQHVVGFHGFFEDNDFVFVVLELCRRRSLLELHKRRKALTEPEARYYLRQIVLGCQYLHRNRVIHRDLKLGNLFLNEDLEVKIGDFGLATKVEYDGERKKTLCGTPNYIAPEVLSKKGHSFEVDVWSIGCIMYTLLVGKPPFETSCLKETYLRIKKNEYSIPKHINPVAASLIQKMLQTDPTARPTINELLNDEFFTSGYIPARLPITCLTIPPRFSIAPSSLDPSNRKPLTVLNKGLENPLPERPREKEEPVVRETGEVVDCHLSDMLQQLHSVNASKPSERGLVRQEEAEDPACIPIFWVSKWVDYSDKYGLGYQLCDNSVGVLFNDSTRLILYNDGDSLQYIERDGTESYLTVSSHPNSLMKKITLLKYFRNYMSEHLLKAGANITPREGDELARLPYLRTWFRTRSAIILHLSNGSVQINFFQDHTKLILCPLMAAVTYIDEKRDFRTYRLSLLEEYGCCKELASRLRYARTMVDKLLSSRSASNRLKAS

Where no end group is shown, it is not given here. [ ]: non-standard residue; d: D form. The star is where a group is joined. pT = C[C@@H](OP(=O)(O)O)[C@H](N)C(=O)O; Butyl(4-Ph) = c1ccc(CCCC*)cc1

For orientation: IC50 means the concentration that inhibits the measured activity by half. Low values mean higher potency, high ones lower potency. In experiment [1], P(Butyl(4-Ph))LHS[pT] [peptide 8] displayed an IC50 of 38 nM. As for P(Butyl(4-Ph))LHA[pT] [peptide 7(S4A)], the values for the IC50 in experiment [1] and in experiment [2] were 4150 nM and 43000 nM, respectively.

B1: peptide GPMQSpTPLNG-OH (9) (peptide)
peptide: GPMQS[pT]PLNG-OH
modifications: N-terminus assumed
SMILES: CSCC[C@H](NC(=O)[C@@H]1CCCN1C(=O)CN)C(=O)N[C@@H](CCC(N)=O)C(=O)N[C@@H](CO)C(=O)N[C@H](C(=O)N1CCC[C@H]1C(=O)N[C@@H](CC(C)C)C(=O)N[C@@H](CC(N)=O)C(=O)NCC(=O)O)[C@@H](C)OP(=O)(O)O
For B1, the half-inhibitory concentration (IC50) in experiment [1] came to 1120 nM. This lies in the single-digit micromolar range.
